This note sets out measurements from patent US20110008345A1 (GlaxoSmithKline, published 2011).

Experiment [1] has as its target T1, Recombinant Human HGF R (c-MET)/Fc Chimera (human, UniProt P08581 25-932).
T1 construct: bought; also called HGF receptor
Put plainly: ELISA.

For a further experiment, the target named is T2, recombinant human VEGF (human, UniProt P15692-4 27-191).
T2 construct: also called VEGF165; hVEGF165
Description: ELISA.

Experiment [2] concerns the target T3, recombinant E. coli-expressed human IL-13 (human, UniProt P35225 35-146).
T3 construct: made and purified at GSK; also called Interleukin-13; rhIL-13
Put plainly: SPR.

Experiment [3] concerns the target T4, CD20 on CD20 positive cell line (Wein133) (UniProt P11836 1-297, limits assumed).
T4 construct: whole, on cells
T4 sequence (looked up): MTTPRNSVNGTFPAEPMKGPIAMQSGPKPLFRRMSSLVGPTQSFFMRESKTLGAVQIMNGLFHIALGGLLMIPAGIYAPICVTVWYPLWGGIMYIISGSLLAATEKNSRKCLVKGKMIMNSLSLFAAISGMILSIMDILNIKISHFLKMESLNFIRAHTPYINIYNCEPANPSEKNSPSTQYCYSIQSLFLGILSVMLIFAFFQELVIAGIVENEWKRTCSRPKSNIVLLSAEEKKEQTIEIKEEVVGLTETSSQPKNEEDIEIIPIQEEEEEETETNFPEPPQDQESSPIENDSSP
Put plainly: flow cytometry, Wein133 cells.

Experiment [4] concerns the target T3, recombinant E. coli-expressed human …. Description: ELISA, supernatant.
In experiment [5] the target is T5, recombinant E. coli-expressed human IL-4 (human, UniProt P05112 25-153).
T5 construct: made and purified at GSK; also called Interleukin-4; rhIL-4
T5 sequence: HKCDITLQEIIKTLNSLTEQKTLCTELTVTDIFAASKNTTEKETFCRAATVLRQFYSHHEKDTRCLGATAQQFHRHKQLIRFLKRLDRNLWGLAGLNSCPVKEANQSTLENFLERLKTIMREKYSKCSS
Description: ELISA, supernatant.

The target in the next experiment is T6, recombinant human HER2 (human, UniProt P04626 23-652, limits assumed).
T6 construct: bought
Put plainly: ELISA.

The next experiment addresses T7, VEGF R2 (VEGF receptor) (human, UniProt P35968 20-764).
T7 construct: bought; construct not described
Put plainly: ELISA.

T7 sequence (P35968 20-764 limits assumed): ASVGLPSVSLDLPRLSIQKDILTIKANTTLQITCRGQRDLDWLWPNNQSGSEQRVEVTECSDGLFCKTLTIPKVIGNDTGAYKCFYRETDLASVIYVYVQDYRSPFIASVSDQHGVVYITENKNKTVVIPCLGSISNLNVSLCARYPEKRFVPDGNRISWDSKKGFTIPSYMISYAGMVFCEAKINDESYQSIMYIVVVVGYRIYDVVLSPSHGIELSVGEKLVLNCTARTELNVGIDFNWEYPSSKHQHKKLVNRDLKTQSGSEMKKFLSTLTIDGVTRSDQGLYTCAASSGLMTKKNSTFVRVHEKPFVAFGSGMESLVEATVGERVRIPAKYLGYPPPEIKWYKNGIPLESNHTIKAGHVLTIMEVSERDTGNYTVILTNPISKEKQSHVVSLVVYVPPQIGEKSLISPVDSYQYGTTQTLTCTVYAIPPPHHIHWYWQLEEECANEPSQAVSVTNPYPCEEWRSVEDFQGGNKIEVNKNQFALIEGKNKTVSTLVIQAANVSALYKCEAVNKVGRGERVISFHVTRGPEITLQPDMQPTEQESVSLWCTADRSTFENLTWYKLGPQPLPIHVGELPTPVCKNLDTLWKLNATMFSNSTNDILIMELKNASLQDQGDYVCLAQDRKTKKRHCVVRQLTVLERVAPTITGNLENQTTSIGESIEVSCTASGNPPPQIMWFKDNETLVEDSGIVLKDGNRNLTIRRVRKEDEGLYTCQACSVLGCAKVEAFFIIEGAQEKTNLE
T1 sequence (P08581 25-932 limits assumed, change not shown): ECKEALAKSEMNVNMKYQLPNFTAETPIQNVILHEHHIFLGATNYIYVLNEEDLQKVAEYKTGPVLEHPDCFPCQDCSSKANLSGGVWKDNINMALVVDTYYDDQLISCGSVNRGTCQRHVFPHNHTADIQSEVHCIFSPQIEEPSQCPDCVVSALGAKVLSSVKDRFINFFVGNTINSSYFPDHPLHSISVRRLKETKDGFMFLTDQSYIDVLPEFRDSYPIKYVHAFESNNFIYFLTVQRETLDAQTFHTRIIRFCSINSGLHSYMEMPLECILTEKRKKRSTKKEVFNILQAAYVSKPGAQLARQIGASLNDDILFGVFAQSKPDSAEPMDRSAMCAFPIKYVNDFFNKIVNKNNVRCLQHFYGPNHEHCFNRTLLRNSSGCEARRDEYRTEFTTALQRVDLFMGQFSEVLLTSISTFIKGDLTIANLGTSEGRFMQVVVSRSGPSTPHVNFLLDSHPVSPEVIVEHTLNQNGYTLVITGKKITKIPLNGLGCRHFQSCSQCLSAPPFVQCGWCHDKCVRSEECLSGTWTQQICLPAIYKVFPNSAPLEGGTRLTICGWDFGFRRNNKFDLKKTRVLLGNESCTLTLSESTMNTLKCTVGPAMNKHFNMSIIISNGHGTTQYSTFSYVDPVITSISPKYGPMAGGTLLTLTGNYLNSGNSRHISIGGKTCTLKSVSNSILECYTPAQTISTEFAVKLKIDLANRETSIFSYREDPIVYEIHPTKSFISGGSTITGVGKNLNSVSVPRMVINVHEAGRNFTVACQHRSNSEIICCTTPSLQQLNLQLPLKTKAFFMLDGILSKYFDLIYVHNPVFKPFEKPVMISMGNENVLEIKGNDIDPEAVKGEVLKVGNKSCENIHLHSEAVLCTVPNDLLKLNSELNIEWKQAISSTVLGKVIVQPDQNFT

B1: BPC1020 (antibody, V domains shown)
VH: EVQLVESGGGLVQPGGSLRLSCAASGYTFTSYWLHWVRQAPGKGLEWVGMIDPSNSDTRFNPNFKDRFTISADTSKNTAYLQMNSLRAEDTAVYYCATYRSYVTPLDYWGQGTLVTVSS
VL: DIQMTQSPSSLSASVGDRVTITCKSSQSLLYTSSQKNYLAWYQQKPGKAPKLLIYWASTRESGVPSRFSGSGSGTDFTLTISSLQPEDFATYYCQQYYAYPWTFGQGTKVEIKR
B1: the values for the binding result (in experiment [1]; with recombinant human VEGF) were “binds” and “no binding”, respectively.

B2: BPC1401 (bispecific antibody, human IgG1, kappa)
heavy: not shown
light: QIVLSQSPAILSASPGEKVTMTCRASSSVSYIHWFQQKPGSSPKPWIYATSNLASGVPVRFSGSGSGTSYSLTISRVEAEDAATYYCQQWTSNPPTFGGGTKLEIKRTVAAPSVFIFPPSDEQLKSGTASVVCLLNNFYPREAKVQWKVDNALQSGNSQESVTEQDSKDSTYSLSSTLTLSKADYEKHKVYACEVTHQGLSSPVTKSFNRGEC
Turning to B2, in experiment [2], the Kd stood at 313 pM, the koff came to 0.000182 s⁻¹ and the kon turned out to be 581000 M⁻¹ s⁻¹. The binding result in experiment [3] is “binds”.

B3: BPC1402 (bispecific antibody, human IgG1, kappa)
heavy: not shown
light: QIVLSQSPAILSASPGEKVTMTCRASSSVSYIHWFQQKPGSSPKPWIYATSNLASGVPVRFSGSGSGTSYSLTISRVEAEDAATYYCQQWTSNPPTFGGGTKLEIKRTVAAPSVFIFPPSDEQLKSGTASVVCLLNNFYPREAKVQWKVDNALQSGNSQESVTEQDSKDSTYSLSSTLTLSKADYEKHKVYACEVTHQGLSSPVTKSFNRGEC
notes: also called RituxanH-GS-DOM474
For B3, in experiment [2], the Kd turned out to be 358 pM, the koff was 0.000305 s⁻¹ and the kon turned out to be 852000 M⁻¹ s⁻¹. In addition, in experiment [3], the binding result is “binds”.

B4: BPC1404 (bispecific antibody, human IgG1, kappa)
heavy: not shown
light: QIVLSQSPAILSASPGEKVTMTCRASSSVSYIHWFQQKPGSSPKPWIYATSNLASGVPVRFSGSGSGTSYSLTISRVEAEDAATYYCQQWTSNPPTFGGGTKLEIKRTVAAPSVFIFPPSDEQLKSGTASVVCLLNNFYPREAKVQWKVDNALQSGNSQESVTEQDSKDSTYSLSSTLTLSKADYEKHKVYACEVTHQGLSSPVTKSFNRGECGSGVQLLESGGGLVQPGGSLRLSCAASGFTFAWYDMGWVRQAPGKGLEWVSSIDWHGEVTYYADSVKGRFTISRDNSKNTLYLQMNSLRAEDTAVYYCATAEDEPGYDYWGQGTLVTVSS
notes: also called RituxanL-GS-DOM474
Regarding B4, in experiment [2], the Kd stood at 1020 pM, the koff is 0.000508 s⁻¹ and the kon came to 499000 M⁻¹ s⁻¹. Further, the binding result in experiment [3] was “binds”.

B5: BPC1617 (bispecific antibody, human IgG2, kappa)
heavy: QVTLRESGPALVKPTQTLTLTCTFSGFSLSTSGMGVSWIRQPPGKGLEWLAHIYWDDDKRYNPSLKSRLTISKDTSRNQVVLTMTNMDPVDTATYYCARRETVFYWYFDVWGRGTLVTVSSASTKGPSVFPLAPCSRSTSESTAALGCLVKDYFPEPVTVSWNSGALTSGVHTFPAVLQSSGLYSLSSVVTVPSSNFGTQTYTCNVDHKPSNTKVDKTVERKCCVECPPCPAPPVAGPSVFLFPPKPKDTLMISRTPEVTCVVVDVSHEDPEVQFNWYVDGVEVHNAKTKPREEQFNSTFRVVSVLTVVHQDWLNGKEYKCKVSNKGLPAPIEKTISKTKGQPREPQVYTLPPSREEMTKNQVSLTCLVKGFYPSDIAVEWESNGQPENNYKTTPPMLDSDGSFFLYSKLTVDKSRWQQGNVFSCSVMHEALHNHYTQKSLSLSPGKGSGVQLLESGGGLVQPGGSLRLSCAASGFTFAWYDMGWVRQAPGKGLEWVSSIDWHGEVTYYADSVKGRFTISRDNSKNTLYLQMNSLRAEDTAVYYCATAEDEPGYDYWGQGTLVTVSS
light: DIVLTQSPSSLSASVGDRVTITCKASQSVDYDGDSYMNWYQQKPGKAPKLLIYAASNLESGIPSRFSGSGSGTDFTFTISSLQPEDIATYYCQQSNEDPPTFGQGTKVEIKRTVAAPSVFIFPPSDEQLKSGTASVVCLLNNFYPREAKVQWKVDNALQSGNSQESVTEQDSKDSTYSLSSTLTLSKADYEKHKVYACEVTHQGLSSPVTKSFNRGEC
Regarding B5, the binding result in experiment [4] and in experiment [5] was “binds” in each case.

B6: BPC1618 (bispecific antibody, human IgG4, kappa)
heavy: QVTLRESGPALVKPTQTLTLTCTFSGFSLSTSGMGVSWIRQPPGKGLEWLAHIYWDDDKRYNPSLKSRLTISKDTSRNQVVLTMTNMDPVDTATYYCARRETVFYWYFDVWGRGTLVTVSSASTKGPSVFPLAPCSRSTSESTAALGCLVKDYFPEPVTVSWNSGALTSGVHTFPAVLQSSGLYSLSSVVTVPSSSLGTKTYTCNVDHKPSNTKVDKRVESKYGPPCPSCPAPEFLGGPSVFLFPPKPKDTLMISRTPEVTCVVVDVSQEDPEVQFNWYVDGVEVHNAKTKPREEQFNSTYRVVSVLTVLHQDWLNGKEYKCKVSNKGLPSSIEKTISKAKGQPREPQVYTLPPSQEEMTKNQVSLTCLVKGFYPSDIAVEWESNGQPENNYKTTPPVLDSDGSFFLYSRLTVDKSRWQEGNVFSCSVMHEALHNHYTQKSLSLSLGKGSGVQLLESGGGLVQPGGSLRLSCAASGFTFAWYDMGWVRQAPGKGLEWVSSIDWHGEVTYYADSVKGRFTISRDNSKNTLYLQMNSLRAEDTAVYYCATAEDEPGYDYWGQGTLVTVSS
light: DIVLTQSPSSLSASVGDRVTITCKASQSVDYDGDSYMNWYQQKPGKAPKLLIYAASNLESGIPSRFSGSGSGTDFTFTISSLQPEDIATYYCQQSNEDPPTFGQGTKVEIKRTVAAPSVFIFPPSDEQLKSGTASVVCLLNNFYPREAKVQWKVDNALQSGNSQESVTEQDSKDSTYSLSSTLTLSKADYEKHKVYACEVTHQGLSSPVTKSFNRGEC
With B6, the binding result in experiment [4] and in experiment [5] was “binds” in each case.

B7: BPC1619 (bispecific antibody, human IgG4 S228P, kappa)
heavy: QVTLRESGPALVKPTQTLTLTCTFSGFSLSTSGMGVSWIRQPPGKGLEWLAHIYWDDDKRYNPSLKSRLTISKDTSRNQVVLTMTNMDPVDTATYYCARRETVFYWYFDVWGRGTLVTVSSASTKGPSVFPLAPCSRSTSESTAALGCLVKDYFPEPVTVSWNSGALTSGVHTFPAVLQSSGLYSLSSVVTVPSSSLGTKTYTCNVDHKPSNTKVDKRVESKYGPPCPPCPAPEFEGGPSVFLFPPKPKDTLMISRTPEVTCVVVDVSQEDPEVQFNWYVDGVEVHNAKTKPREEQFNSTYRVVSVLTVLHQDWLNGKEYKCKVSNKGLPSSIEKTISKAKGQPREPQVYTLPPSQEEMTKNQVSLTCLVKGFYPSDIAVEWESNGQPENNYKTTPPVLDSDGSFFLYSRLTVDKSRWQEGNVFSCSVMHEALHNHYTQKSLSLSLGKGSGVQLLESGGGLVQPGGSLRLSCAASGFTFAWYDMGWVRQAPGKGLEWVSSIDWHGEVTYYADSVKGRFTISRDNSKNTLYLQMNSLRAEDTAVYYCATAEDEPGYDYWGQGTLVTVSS
light: DIVLTQSPSSLSASVGDRVTITCKASQSVDYDGDSYMNWYQQKPGKAPKLLIYAASNLESGIPSRFSGSGSGTDFTFTISSLQPEDIATYYCQQSNEDPPTFGQGTKVEIKRTVAAPSVFIFPPSDEQLKSGTASVVCLLNNFYPREAKVQWKVDNALQSGNSQESVTEQDSKDSTYSLSSTLTLSKADYEKHKVYACEVTHQGLSSPVTKSFNRGEC
On to B7, for which the binding result in experiment [4] and in experiment [5] was “binds” in each case.

B8: anti-IGF-1R antibody H0L0 (antibody, human IgG1, kappa, V domains shown)
VH: QVQLVQSGAEVKKPGASVKVSCKASGYTFTDYYMNWVRQAPGQGLEWMGNINPNNGGTNYNQKFKDRVTMTTDTSTSTAYMELRSLRSDDTAVYYCARWILYYGRSKWYFDVWGRGTLVTVSS
VL: DIVMTQSPLSLPVTPGEPASISCRSSQSIVQSNGDTYLEWYLQKPGQSPQLLIYRVSNRFSGVPDRFSGSGSGTDFTLKISRVEAEDVGVYYCFQGSHVPYTFGQGTKLEIKR
notes: also called HOLO
In the case of B8, the binding result in the experiment with recombinant human HER2, in the experiment with recombinant human VEGF and with VEGF R2 (VEGF receptor) was “no binding” throughout.

B9: BPC1019 (antibody, human IgG1, kappa)
heavy: not shown
chain: not shown
light: DIQMTQSPSSLSASVGDRVTITCKSSQSLLYTSSQKNYLAWYQQKPGKAPKLLIYWASTRESGVPSRFSGSGSGTDFTLTISSLQPEDFATYYCQQYYAYPWTFGQGTKVEIKRTVAAPSVFIFPPSDEQLKSGTASVVCLLNNFYPREAKVQWKVDNALQSGNSQESVTEQDSKDSTYSLSSTLTLSKADYEKHKVYACEVTHQGLSSPVTKSFNRGEC
notes: monovalent antibody; also called anti cMET 5D5v2 knob-into-hole
Turning to B9, the binding result is reported as “binds” in experiment [1] and “no binding” with recombinant human VEGF.

B10: BPC1801 (bispecific antibody, human IgG1, kappa)
heavy: not shown
light: DIVMTQSPLSLPVTPGEPASISCRSSQSIVQSNGDTYLEWYLQKPGQSPQLLIYRVSNRFSGVPDRFSGSGSGTDFTLKISRVEAEDVGVYYCFQGSHVPYTFGQGTKLEIKRTVAAPSVFIFPPSDEQLKSGTASVVCLLNNFYPREAKVQWKVDNALQSGNSQESVTEQDSKDSTYSLSSTLTLSKADYEKHKVYACEVTHQGLSSPVTKSFNRGEC
notes: also called antiIGF1R Heavy Chain-GS-CT01 adnectin
B10: the binding result in the experiment with VEGF R2 (VEGF receptor) is “binds”.

B11: BPC1802 (bispecific antibody, human IgG1, kappa)
heavy: not shown
light: DIVMTQSPLSLPVTPGEPASISCRSSQSIVQSNGDTYLEWYLQKPGQSPQLLIYRVSNRFSGVPDRFSGSGSGTDFTLKISRVEAEDVGVYYCFQGSHVPYTFGQGTKLEIKRTVAAPSVFIFPPSDEQLKSGTASVVCLLNNFYPREAKVQWKVDNALQSGNSQESVTEQDSKDSTYSLSSTLTLSKADYEKHKVYACEVTHQGLSSPVTKSFNRGEC
For B11, in the experiment with VEGF R2 (VEGF receptor), the binding result is reported as “binds”.
